From PMC2949612, “The effects of oligomerization on Saccharomyces cerevisiae Mcm4/6/7 function” (BMC Biochemistry, 2010)
Positions count from the first letter of the chain named.

T1: Mcm4 (S. cerevisiae, UniProt P30665 1-933)
T1 construct: Mcm4, S. cerevisiae; the entire MCM4 ORF stands on pET11a-MCM4; also called minichromosome maintenance protein 4; source: purified (ammonium sulphate, SP Sepharose, heparin agarose, ssDNA Sepharose, Mono S)
T1 sequence (looked up): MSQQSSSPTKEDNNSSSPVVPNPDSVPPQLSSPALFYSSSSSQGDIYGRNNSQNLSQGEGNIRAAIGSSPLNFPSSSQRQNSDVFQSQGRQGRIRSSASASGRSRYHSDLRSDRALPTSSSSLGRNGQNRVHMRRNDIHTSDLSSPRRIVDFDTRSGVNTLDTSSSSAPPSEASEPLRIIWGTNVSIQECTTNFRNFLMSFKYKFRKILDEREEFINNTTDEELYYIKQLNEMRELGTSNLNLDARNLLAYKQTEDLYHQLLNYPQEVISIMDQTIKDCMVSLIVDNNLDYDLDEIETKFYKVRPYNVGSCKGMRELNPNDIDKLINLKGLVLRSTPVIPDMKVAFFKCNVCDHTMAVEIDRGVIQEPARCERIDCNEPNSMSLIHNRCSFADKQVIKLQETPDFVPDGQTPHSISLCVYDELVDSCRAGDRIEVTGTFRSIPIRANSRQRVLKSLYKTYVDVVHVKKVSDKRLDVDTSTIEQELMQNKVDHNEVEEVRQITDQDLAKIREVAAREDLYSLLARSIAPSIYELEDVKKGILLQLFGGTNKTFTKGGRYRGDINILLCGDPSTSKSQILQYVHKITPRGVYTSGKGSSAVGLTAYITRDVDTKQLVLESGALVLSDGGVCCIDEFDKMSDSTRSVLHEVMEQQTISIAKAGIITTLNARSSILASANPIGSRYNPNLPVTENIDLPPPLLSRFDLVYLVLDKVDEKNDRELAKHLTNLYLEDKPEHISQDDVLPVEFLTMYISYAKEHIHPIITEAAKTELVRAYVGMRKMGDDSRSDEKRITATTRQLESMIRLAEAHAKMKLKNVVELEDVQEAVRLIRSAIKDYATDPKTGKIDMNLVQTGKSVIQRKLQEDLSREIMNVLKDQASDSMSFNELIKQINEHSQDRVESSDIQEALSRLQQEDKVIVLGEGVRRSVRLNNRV

B1: Mcm7 (natural protein, S. cerevisiae, UniProt P38132 1-845, looked up)
chain: MSAALPSIQLPVDYNNLFNEITDFLVTFKQDTLSSDATRNENEDENLDAENIEQHLLEKGPKYMAMLQKVANRELNSVIIDLDDILQYQNEKFLQGTQADDLVSAIQQNANHFTELFCRAIDNNMPLPTKEIDYKDDVLDVILNQRRLRNERMLSDRTNEIRSENLMDTTMDPPSSMNDALREVVEDETELFPPNLTRRYFLYFKPLSQNCARRYRKKAISSKPLSVRQIKGDFLGQLITVRGIITRVSDVKPAVEVIAYTCDQCGYEVFQEVNSRTFTPLSECTSEECSQNQTKGQLFMSTRASKFSAFQECKIQELSQQVPVGHIPRSLNIHVNGTLVRSLSPGDIVDVTGIFLPAPYTGFKALKAGLLTETYLEAQFVRQHKKKFASFSLTSDVEERVMELITSGDVYNRLAKSIAPEIYGNLDVKKALLLLLVGGVDKRVGDGMKIRGDINVCLMGDPGVAKSQLLKAICKISPRGVYTTGKGSSGVGLTAAVMKDPVTDEMILEGGALVLADNGICCIDEFDKMDESDRTAIHEVMEQQTISISKAGINTTLNARTSILAAANPLYGRYNPRLSPLDNINLPAALLSRFDILFLMLDIPSRDDDEKLAEHVTYVHMHNKQPDLDFTPVEPSKMREYIAYAKTKRPVMSEAVNDYVVQAYIRLRQDSKREMDSKFSFGQATPRTLLGIIRLSQALAKLRLADMVDIDDVEEALRLVRVSKESLYQETNKSKEDESPTTKIFTIIKKMLQETGKNTLSYENIVKTVRLRGFTMLQLSNCIQEYSYLNVWHLINEGNTLKFVDDGTMDTDQEDSLVSTPKLAPQTTASANVSAQDSDIDLQDA
notes: Mcm7, S. cerevisiae; also called minichromosome maintenance protein 7
B2: Mcm4^R701A (natural protein, S. cerevisiae, UniProt P30665 1-933, looked up)
chain: T1 sequence (looked up) with R701A
notes: Mcm4, S. cerevisiae; entire MCM4 ORF with the SRF arginine R701 changed to alanine; Purification of the mutant is not described separately; also called 4^RA; Mcm4^RA; source: purified

How the values were obtained:
Conditions in all cases: both partners purified
[1] = target: B2; experiment: SEC; 5.2 nmol each subunit mixed, 5 mg/ml, 16°C 30 min; Superose 6 10/300 GL, 20 mM Tris-HCl pH 7.5, 0.1 mM EDTA, 2 mM DTT, 100 mM NaCl, 10% glycerol; no nucleotide
[2] = target: T1, Mcm4; experiment: cross-linking; glutaraldehyde, 9 ug Mcm4/6/7 in 20 mM HEPES NaOH pH 8.4, 10 mM magnesium acetate, no nucleotide; 16°C 30 min then 2 min 37°C; 3.5% SDS-phosphate gel
[3] = target: T2, Mcm6 (S. cerevisiae, UniProt P53091 1-1017); experiment: SEC; 5.2 nmol each subunit mixed, 5 mg/ml, 16°C 30 min; Superose 6 10/300 GL, 20 mM Tris-HCl pH 7.5, 0.1 mM EDTA, 2 mM DTT, 100 mM NaCl, 10% glycerol; no nucleotide
T2 construct: Mcm6, S. cerevisiae; also called minichromosome maintenance protein 6
T2 sequence (P53091 whole entry): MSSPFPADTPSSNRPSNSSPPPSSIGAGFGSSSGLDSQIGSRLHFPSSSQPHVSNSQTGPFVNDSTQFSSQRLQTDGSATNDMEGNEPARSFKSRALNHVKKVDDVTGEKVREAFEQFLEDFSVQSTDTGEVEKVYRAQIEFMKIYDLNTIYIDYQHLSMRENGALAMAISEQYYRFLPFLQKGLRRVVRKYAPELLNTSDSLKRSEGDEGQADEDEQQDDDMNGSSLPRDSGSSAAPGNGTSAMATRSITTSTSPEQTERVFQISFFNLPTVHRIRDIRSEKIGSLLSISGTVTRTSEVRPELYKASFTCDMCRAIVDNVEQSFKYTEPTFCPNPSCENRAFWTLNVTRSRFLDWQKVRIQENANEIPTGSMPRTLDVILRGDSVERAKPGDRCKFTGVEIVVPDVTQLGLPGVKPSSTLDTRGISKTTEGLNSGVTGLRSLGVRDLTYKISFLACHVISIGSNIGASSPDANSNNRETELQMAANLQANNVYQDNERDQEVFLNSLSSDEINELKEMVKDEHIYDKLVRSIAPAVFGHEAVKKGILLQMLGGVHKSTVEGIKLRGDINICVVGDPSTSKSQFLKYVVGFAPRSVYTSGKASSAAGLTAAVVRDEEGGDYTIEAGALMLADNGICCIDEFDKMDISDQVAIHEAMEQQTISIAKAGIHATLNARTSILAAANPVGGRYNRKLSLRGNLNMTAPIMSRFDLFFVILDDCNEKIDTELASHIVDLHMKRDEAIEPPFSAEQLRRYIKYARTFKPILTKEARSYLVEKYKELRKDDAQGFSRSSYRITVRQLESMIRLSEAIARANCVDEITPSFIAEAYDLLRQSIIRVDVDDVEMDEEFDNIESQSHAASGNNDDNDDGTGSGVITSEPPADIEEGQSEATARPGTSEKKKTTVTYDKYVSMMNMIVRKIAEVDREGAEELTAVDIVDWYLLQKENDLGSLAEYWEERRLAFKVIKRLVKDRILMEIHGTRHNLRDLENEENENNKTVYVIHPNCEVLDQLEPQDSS

binding result [1] | binding result [2] | binding result [3] | Binder
binds | binds | – | B1
– | – | binds | B2
